Molecular target: T1, YgiT (E. coli, UniProt Q46864 1-131)
T1 construct: YgiT with no tag named, co-expressed with H-MqsR from pET-MqsRYgiT (the operon cloned in pET28a) or induced from pBAD-YgiT in cells; also called YgiT of the H-MqsRYgiT complex; YgiT expressed from pBAD-YgiT
T1 sequence: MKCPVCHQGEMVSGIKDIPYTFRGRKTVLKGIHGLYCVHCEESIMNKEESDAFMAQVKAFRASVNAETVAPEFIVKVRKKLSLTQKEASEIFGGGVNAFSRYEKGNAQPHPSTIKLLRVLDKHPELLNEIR
Assay: co-expression and co-purification on Ni-NTA agarose through the tag of H-MqsR

B1: N-terminal histidine-tagged MqsR (enzyme)
chain: MEKRTPHTRLSQVKKLVNAGQVRTTRSALLNADELGLDFDGMCNVIIGLSESDFYKSMTTYSDHTIWQDVYRPRLVTGQVYLKITVIHDVLIVSFKEK
notes: also called H-MqsR; His-MqsR; not shown: N-terminal histidine tag from pET28a
  binding result: binds

— patent US20110217282A1 (UNIVERSITY OF MEDICINE AND DENTISTRY OF NEW JERSEY, published 2011)
